In patent US10358663B2, “Method of production of 2,4-dihydroxybutyric acid” (ADISSEO FRANCE S.A.S., priority 2010, dated 2019) one finds Km data, which are given here for 5 proteins.

Residue numbers refer to the chain shown, from its start. Names may count otherwise.

Substrate in data set [1]: O=CC[C@H](O)C(=O)O
The experiment in a line: Malate semialdehyde dehydrogenase assay, Asd E241Q T136N. In kind it is biochemical, Escherichia coli. The conditions noted are these: other: malate semialdehyde, reverse biosynthetic direction, pH 9, 0.25 mM NADP, 30° C. On the procedure:
Enzymatic assay: Aspartate or malate semialdehyde dehydrogenase activities were assayed in the reverse biosynthetic direction by following the reduction of NADP during the oxidation of aspartate or malate semialdehyde to 4-phospho-(L)-aspartate or 4-phospho-(L)-malate, respectively (Roberts et al., 2003). (L)-aspartate semialdehyde (or (L)-malate semialdehyde)+NADP+Pi→4-phospho-(L)-aspartate (or 4-phospho-(L)-malate)+NADPH
The assay mixture contained 200 mM Hepes (pH 9), 50 mM K2HPO4, 0.25 mM NADP. Reactions were started by adding (L)-aspartate semialdehyde or (L)-malate semialdehyde. (L)-Aspartate semialdehyde was added in the form of L-aspartic acid β-semialdehyde hydrate trifluoroacetate (maintained at pH3 to prevent degradation) which is a suitable substrate for enzymatic tests of homoserine dehydrogenase and aspartate semialdehyde dehysrogenase (Roberts et al., 2003). Unstable malate semialdehyde was produced freshly prior to the enzymatic tests by the deprotection of the stable malate semialdehyde derivative 2-[(4S)-2,2-dimethyl-5-oxo-1,3-dioxolan-4-yl]acetaldehyde (DMODA). […]
Enzymatic assays were carried out in 96-well flat bottomed microtiter plates in a final volume of 250 μL at 30° C. The reactions were followed by the characteristic absorption of NADPH at 340 nm in a microplate reader (BioRad 680XR). […]

Substrate in data set [2]: O=CC[C@H](O)C(=O)O
The data set can be described thus: Malate semialdehyde reductase assay, Ms-SSR N43H. Format: biochemical, Metallosphaera sedula. The settings on record: other: malate semialdehyde, pH 7.5, 30° C. As to the method:
(§1) Test for Malate Semialdehyde Reductase Activity: Reaction: (L)-Malate semialdehyde+NAD(P)H→(L)-2,4-dihydroxybutyric acid+NAD(P)
(§2) The assay mixture contained 200 mM Hepes (pH 7.5), 50 mM KCl, 5 mM MgCl2, 0.24 mM NADH or NADPH, and appropriate amounts of purified enzyme. Reactions were started by adding 10 mM (L)-malate semialdehyde (malate semialdehyde was prepared freshly for each test, see Example 4). Enzymatic assays were carried out at 30° C. in 96-well flat bottomed microtiter plates in a final volume of 250 μL. The reactions were followed by the characteristic absorption of NAD(P)H at 340 nm in a microplate reader (BioRad 680XR).
(§3) Site-directed mutagenesis was carried out using the oligonucleotide pairs listed in Table 8 and the pMs-SSR plasmid as the template. Point mutations to change the amino acid sequences were introduced by PCR (Phusion 1U, HF buffer 20% (v/v), dNTPs 2.5 mM, direct and reverse primers 1 μM each, template plasmid 200 ng, water). When possible, plasmids created by PCR contained new restriction sites (introduced using silent mutations) in addition to the functional mutation to facilitate identification of mutated clones. The PCR products were digested by DpnI at 37° C. for 1 h to remove template DNA, and transformed into NEB 5-alpha competent E. coli cells (NEB). […]

Substrate in data set [3]: O=CC[C@H](O)C(=O)O
The experiment in a line: Malate semialdehyde reductase assay, Ms-SSR wild type. In kind it is biochemical, Metallosphaera sedula. The settings on record: other: malate semialdehyde, pH 7.5, 30° C. On the procedure: as §1, §2

Substrate in data set [4]: O=CC[C@H](O)C(=O)O
The data set can be described thus: Malate semialdehyde reductase assay, Ms-SSR H39R N43H. Format: biochemical, Metallosphaera sedula. The conditions noted are these: other: malate semialdehyde, pH 7.5, 30° C. On the procedure:
as §1, §2, §3

Substrate in data set [5]: O=CC[C@H](O)C(=O)O
The data set can be described thus: Malate semialdehyde reductase assay, Ms-SSR H39R. Format: biochemical, Metallosphaera sedula. The settings on record: other: malate semialdehyde, pH 7.5, 30° C. On the procedure: as §1, §2, §3

B1: E. coli aspartate semialdehyde dehydrogenase Asd variant E241Q T136N, SEQ ID NO: 231 (Escherichia coli K-12; E241Q/T136N) (protein)
chain: MKNVGFIGWRGMVGSVLMQRMVEERDFDAIRPVFFSTSQLGQAAPSFGGTTGTLQDAFDLEALKALDIIVTCQGGDYTNEIYPKLRESGWQGYWIDAASSLRMKDDAIIILDPVNQDVITDGLNNGIRTFVGGNCNVSLMLMSLGGLFANDLVDWVSVATYQAASGGGARHMRELLTQMGHLYGHVADELATPSSAILDIERKVTTLTRSGELPVDNFGVPLAGSLIPWIDKQLDNGQSRQEWKGQAETNKILNTSSVIPVDGLCVRVGALRCHSQAFTIKLKKDVSIPTVEELLAAHNPWAKVVPNDREITMRELTPAAVTGTLTTPVGRLRKLNMGPEFLSAFTVGDQLLWGAAEPLRRMLRQLA
With B1, the Michaelis-Menten constant (Km) (commonly the concentration of substrate that gives half-maximal velocity) in data set [1] was 250 µM.

B2: Metallosphaera sedula succinic semialdehyde reductase Ms-SSR variant N43H, SEQ ID NO: 227 (Metallosphaera sedula DSM 5348; N43H) (protein)
chain: MKAAVLHTYKEPLSIEDVNISQPKAGEVKIKVKATGLCHSDVHVFEGKTPVPPPVVAGHEISGIVEEVGPGVTRVKPGDRVISAFIHPCGKCGNCVAGKENLCETFSQVRLKGVMPDGTSRLSKDGKEIRTFLGGGFAEYAIVGENALTRVPEDMDLEKVAVLGCAGLTGYGAISSSKIEPGDTVAVIGVGGVGLSTIQLLRASGAGRIIAVGTKKWKLDRAMELGATDVVNSKEIDPVKAIKEITGGGPQVVIEAGGNEDTIHMALDSVRIGGKVVLVGLPPATAMIPIRVASIVRGGIEVVGNYGGRPRVDMPKLLELVRQGRYDPSRLVTGRFRLEEINEAVKMLEEGEAIRSLIIP
Take B2: the Km in data set [2] came out at 2500 µM.

B3: Metallosphaera sedula succinic semialdehyde reductase Ms-SSR, wild type, SEQ ID NO: 76 (Metallosphaera sedula DSM 5348) (protein)
chain: B2 chain with H43N
With B3, in data set [3], the Km was 1100 µM.

B4: Metallosphaera sedula succinic semialdehyde reductase Ms-SSR variant H39R N43H, SEQ ID NO: 81 (Metallosphaera sedula DSM 5348; H39R/N43H) (protein)
chain: B2 chain with H39R
Regarding B4, the Km in data set [4] turned out to be 400 µM.

B5: Metallosphaera sedula succinic semialdehyde reductase Ms-SSR variant H39R, SEQ ID NO: 225 (Metallosphaera sedula DSM 5348; H39R) (protein)
chain: B2 chain with H39R, H43N
For B5, the Km in data set [5] is 500 µM.
